According to the RNAGym collection of RNA variant scans (doi:10.7554/elife.80360):

B1: Hammerhead Ribozyme (parent)
chain: ACCGGAUGUGCUUUCCGGUCUGAUGAGUCCGUGAGGACGAAACAG

Variants of: B1
Experiment: self-cleavage, relative activity (ratio to wild type); higher = more cleavage; co-transcriptional

Variant | self-cleavage
ACCGGAUGUGCUUACCGGUCUGAUGAGUCCGGGAGGACGAAACAG [U14A U32G] | 0.989
ACCGGAUGUGCUUACCGGUCUGAUGAGUCCGAGAGGACGAAACAG [U14A U32A] | 1.38
ACCGGAUGUGCUUACCGGUCUGAUGAGUCCGCGAGGACGAAACAG [U14A U32C] | 0.946
ACCGGAUGUGCUUCUCGGUCUGAUGAGUCCGUGAGGACGAAACAG [U14C C15U] | 0.996
ACCGGAUGUGCUUCACGGUCUGAUGAGUCCGUGAGGACGAAACAG [U14C C15A] | 0.72
ACCGGAUGUGCUUCGCGGUCUGAUGAGUCCGUGAGGACGAAACAG [U14C C15G] | 0.794
ACCGGAUGUGCUUACCGGUCUGAUGAGUCCGUGAGUACGAAACAG [U14A G36U] | 0.528
ACCGGAUGUGCUUACCGGUCUGAUGAGUCCGUGAGAACGAAACAG [U14A G36A] | 0.485
ACCGGAUGUGCUUACCGGUCUGAUGAGUCCGUGAGCACGAAACAG [U14A G36C] | 0.319
ACCGGAUGUGCUUCCCGGUCUGAUGAGUCCGUGAGGACGAAGCAG [U14C A42G] | 0.249
ACCGGAUGUGCUUCCCGGUCUGAUGAGUCCGUGAGGACGAACCAG [U14C A42C] | 0.33
ACCGGAUGUGCUUCCCGGUCUGAUGAGUCCGUGAGGACGAAUCAG [U14C A42U] | 0.423
ACCGGAUGUGCUUCCCGGUCUGCUGAGUCCGUGAGGACGAAACAG [U14C A23C] | 0.373
ACCGGAUGUGCUUCCCGGUCUGUUGAGUCCGUGAGGACGAAACAG [U14C A23U] | 0.341
ACCGGAUGUGCUUCCCGGUCUGGUGAGUCCGUGAGGACGAAACAG [U14C A23G] | 0.268
ACCGGAUGUGCUUCCCGGUCUGAUGAGUCCGUGAGGACGAGACAG [U14C A41G] | 0.312
ACCGGAUGUGCUUCCCGGUCUGAUGAGUCCGUGAGGACGAUACAG [U14C A41U] | 0.296
ACCGGAUGUGCUUCCCGGUCUGAUGAGUCCGUGAGGACGACACAG [U14C A41C] | 0.301
ACCGGAUGUGCUUCCCGGUCUGAUGAGUCCGUGAGGCCGAAACAG [U14C A37C] | 0.436

Variant | self-cleavage
ACCGGAUGUGCUUCCCGGUCUGAUGAGUCCGUGAGGUCGAAACAG [U14C A37U] | 0.624
ACCGGAUGUGCUUCCCGGUCUGAUGAGUCCGUGAGGGCGAAACAG [U14C A37G] | 0.945
ACCGGAUGUGCUUACCGGUCCGAUGAGUCCGUGAGGACGAAACAG [U14A U21C] | 0.586
ACCGGAUGUGCUUACCGGUCAGAUGAGUCCGUGAGGACGAAACAG [U14A U21A] | 0.542
ACCGGAUGUGCUUACCGGUCGGAUGAGUCCGUGAGGACGAAACAG [U14A U21G] | 0.595
ACCGGAUGUGCUUACCGGUCUGAGGAGUCCGUGAGGACGAAACAG [U14A U24G] | 1.12
ACCGGAUGUGCUUACCGGUCUGAAGAGUCCGUGAGGACGAAACAG [U14A U24A] | 0.627
ACCGGAUGUGCUUACCGGUCUGACGAGUCCGUGAGGACGAAACAG [U14A U24C] | 1.2
ACCGGAUGUGCUUACCGGGCUGAUGAGUCCGUGAGGACGAAACAG [U14A U19G] | 0.356
ACCGGAUGUGCUUACCGGACUGAUGAGUCCGUGAGGACGAAACAG [U14A U19A] | 0.304
ACCGGAUGUGCUUACCGGCCUGAUGAGUCCGUGAGGACGAAACAG [U14A U19C] | 0.474
ACCGGAUGUGCUUCCCGGUCUGAUGAGUCCGUGAGGACGAAACCG [U14C A44C] | 0.489
ACCGGAUGUGCUUCCCGGUCUGAUGAGUCCGUGAGGACGAAACUG [U14C A44U] | 0.393
ACCGGAUGUGCUUCCCGGUCUGAUGAGUCCGUGAGGACGAAACGG [U14C A44G] | 1.24
ACCGGAUGUGCUUCCCGGUCUGAUGCGUCCGUGAGGACGAAACAG [U14C A26C] | 0.371
ACCGGAUGUGCUUCCCGGUCUGAUGUGUCCGUGAGGACGAAACAG [U14C A26U] | 0.444
ACCGGAUGUGCUUCCCGGUCUGAUGGGUCCGUGAGGACGAAACAG [U14C A26G] | 0.359
ACCGGAUGUGCUUACCGGUCUGAUGAGGCCGUGAGGACGAAACAG [U14A U28G] | 0.555
ACCGGAUGUGCUUACCGGUCUGAUGAGACCGUGAGGACGAAACAG [U14A U28A] | 0.656

Variant | self-cleavage
ACCGGAUGUGCUUACCGGUCUGAUGAGCCCGUGAGGACGAAACAG [U14A U28C] | 0.923
ACCGGAUGUGCUUCCCGGUCUGAUGAGUCCGUGAGGACGAAACAG [U14C] | 0.932
ACCGGAUGUGCUUCCUGGUCUGAUGAGUCCGUGAGGACGAAACAG [U14C C16U] | 0.95
ACCGGAUGUGCUUCCAGGUCUGAUGAGUCCGUGAGGACGAAACAG [U14C C16A] | 0.931
ACCGGAUGUGCUUCCGGGUCUGAUGAGUCCGUGAGGACGAAACAG [U14C C16G] | 0.722
ACCGGAUGUGCUUACCGGUCUGAUGAGUCCGUGAGGACAAAACAG [U14A G39A] | 0.359
ACCGGAUGUGCUUACCGGUCUGAUGAGUCCGUGAGGACUAAACAG [U14A G39U] | 0.315
ACCGGAUGUGCUUACCGGUCUGAUGAGUCCGUGAGGACCAAACAG [U14A G39C] | 0.276
ACCGGAUGUGCUUCCCGGUCUGAUGAGUCCGUGAGGACGUAACAG [U14C A40U] | 0.354
ACCGGAUGUGCUUCCCGGUCUGAUGAGUCCGUGAGGACGCAACAG [U14C A40C] | 0.277
ACCGGAUGUGCUUCCCGGUCUGAUGAGUCCGUGAGGACGGAACAG [U14C A40G] | 0.273
ACCGGAUGUGCUUACCGGUCUGAUGAGUCCGUGAGGACGAAACAU [U14A G45U] | 0.715
ACCGGAUGUGCUUACCGGUCUGAUGAGUCCGUGAGGACGAAACAA [U14A G45A] | 0.765
ACCGGAUGUGCUUACCGGUCUGAUGAGUCCGUGAGGACGAAACAC [U14A G45C] | 0.636
ACCGGAUGUGCUUCCCGGUAUGAUGAGUCCGUGAGGACGAAACAG [U14C C20A] | 0.337
ACCGGAUGUGCUUACCGGUCUGAUGAGUCCGUGAUGACGAAACAG [U14A G35U] | 0.721
ACCGGAUGUGCUUCCCGGUCUGAUGAGUCCGUGCGGACGAAACAG [U14C A34C] | 0.791
ACCGGAUGUGCUUCCCGGUCUGAUGAGUCCGUGGGGACGAAACAG [U14C A34G] | 0.682
ACCGGAUGUGCUUCCCGGUCUGAUGAGUCCGUGUGGACGAAACAG [U14C A34U] | 0.67
